From paper PMC3212630
Where two headings read alike, the source gives them in different places.

T1: rCsrABb (carbon storage regulator A) (Borrelia burgdorferi, UniProt O51202 1-81)
T1 sequence: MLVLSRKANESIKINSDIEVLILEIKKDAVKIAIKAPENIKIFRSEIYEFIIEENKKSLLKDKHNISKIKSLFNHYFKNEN

B1: flaB leader probe, wild type (P10, flaBp) (ssRNA)
RNA: GCAAAAGGAUUUGCCAAAGUCAGAAUUUAAAUUUUAUCAUGGAGGAAUGA
B2: flaB leader probe, BS1 BS2 mutated (P13) (ssRNA)
RNA: GCAAAAAAAUUUGCCAAAGUCAGAAUUUAAAUUUUAUCAUAAAGGAAUGA

What was measured:
[1] = molecular target: T1, rCsrABb (carbon storage regulator A); test: EMSA
[2] = molecular target: T1, rCsrABb (carbon storage regulator A); test: EMSA; remark: listed apart in the source

Binder	binding result [1]	binding result [2]
B1	binds	
B2		no binding
